Here are results for seven molecules from US9518268B2, “Drought tolerant transgenic plants and method of making same” (PURDUE RESEARCH FOUNDATION, priority 2013, dated 2016).

The test system of test [1] is RD29B-LUC expression. Briefly: Reconstituted ABA signaling pathway, transient expression in wild-type (Col-0) protoplasts. The format is cell-based, Arabidopsis. The following applies: for ABA-dependent induction of RD29B-LUC expression: co-transfected with ABI1, SnRK2.6 and ABF2, without or with 5 μM ABA, 4.5 h. Here is the method:
To test whether PYL13 can act as an ABA receptor, the ABA signaling pathway in wild-type protoplasts was reconstituted. Turning now to FIG. 1, wild-type (Col-0) protoplasts were used in both panels A and B. After transfection, the protoplasts were incubated for 4.5 hours under light in the absence of ABA (open bars) or in the presence of 5 μM ABA (closed bars). Error bars indicate s.e.m. (n=3). […] ZmUBQ-GUS was used as the internal control. […] Instead, the ABA signaling pathway was reconstituted by co-expression of PYLs, ABI1, SnRK2.6, and ABF2. […] Therefore, the response of other members of the PYL family would not predict the response of PYL13 expression or over-expression in plants.
PYL13 interacts with all clade A PP2Cs tested but binds most strongly to PP2CA. To investigate whether PYL13 inhibits PP2Cs in planta, PYL13 was co-expressed with all clade A PP2Cs in wild-type protoplasts, as shown in FIG. 4. Transfections of all PP2Cs together with SnRK2.6 and ABF2 inhibited RD29B-LUC expression to different degrees, see FIG. 4A, and the degree of inhibition was correlated with the intensity of interaction between PP2Cs and SnRK2.6 (Fujii et al., 2009). […] The ABA signaling pathway was reconstituted by co-expression of PYLs, PP2Cs, SnRK2.6, and ABF2. RD29B-LUC was used as the ABA-responsive reporter. ZmUBQ-GUS was used as the internal control. After transfection, protoplasts were incubated for 4.5 h under light in the absence of ABA (open bars) or in the presence of 5 μM ABA (closed bars). Error bars indicate s.e.m. (n=9).
To investigate the physiological significance of the binding between PYL13 and PYLs in vivo, PYL13 was co-expressed with one of the other PYLs, ABI1, SnRK2.6, and ABF2 in wild-type protoplasts. When the transfected PYL13 plasmid was 2-fold of that of the other PYLs, co-transfections with PYL13 decreased the activity of the ABA-responsive PYLs (FIG. 5E). […] ZmUBQ-GUS was used as the internal control. After transfection, protoplasts were incubated for 4.5 h under light in the absence of ABA (open bars) or in the presence of 5 μM ABA (closed bars). Error bars indicate s.e.m. (n=3).
The ABA signaling pathway was reconstituted by co-expression of PYL13, PYLs, ABI1, SnRK2.6, and ABF2. […] Error bars indicate s.e.m. (n=3). […] Without wishing to be bound by theory, PYL13 inhibition of other PYLs might result from direct interactions between PYL13 and other PYLs or from competition for the binding sites on PP2Cs.
(§1) Assays for transient expression in protoplasts were performed as described (Fujii et al., 2009). Leaf strips (0.5 mm) were cut from the middle part of second leaves using a razor blade (VWR SCIENTIFIC) and submerged in 15 mL of enzyme solution containing 20 mM MES, pH 5.7, 1.5% (w/v) cellulase R10 (YAKULT PHARMACEUTICAL INDUSTRY), 0.4% (w/v) macerozyme R10 (YAKULT PHARMACEUTICAL INDUSTRY), 0.4 M mannitol, 20 mM KCl, 10 mM CaCl2, 1 mM 2-mercaptoethanol, and 0.1% BSA. The leaves were vacuum infiltrated for 30 min and then incubated without shaking for 3 h in the dark at room temperature. The enzyme/protoplast solution was diluted with 15 mL of W5 solution (2 mM MES, pH 5.7, 154 mM NaCl, 125 mM CaCl2, and 5 mM KCl) and filtered with a 75-μm nylon mesh. Protoplasts were centrifuged at 100 g for 2 min in a 30-mL round-bottomed tube (SARSTEDT), resuspended in W5 solution, and rested for 30 min at room temperature.
Before transfection, protoplasts were changed into MMg solution (4 mM MES, pH 5.7, 0.4 M mannitol, and 15 mM MgCl2) to a final concentration of 2×10^5 cells per microliter. Protoplasts (100 μl) were gently and thoroughly mixed with the plasmid DNA mixture (less than 10 μl) and 110 μl of PEG solution (40% w/v PEG-4000, 0.2 M mannitol, and 100 mM CaCl2), incubated for 5 min, washed with 440 μl of W5 solution, and resuspended in 50 μl of WI solution (4 mM MES, pH 5.7, 0.5 M mannitol, and 20 mM KCl). After transfection, protoplasts were incubated in WI solution without ABA or with 5 μM ABA under light. […]

Test [2] has as its system RD29B-LUC expression. Briefly: ABA-independent induction of RD29B-LUC in triple mutant protoplasts. The following applies: for ABA-independent RD29B-LUC expression, as share of that in the presence of 5 μM ABA: abi1/hab1/abi2 and abi1hab1pp2ca triple mutant protoplasts, with SnRK2.6 and ABF2. The test is classed as cell-based, Arabidopsis.
Excerpt: The basal RD29B-LUC expression level was elevated in protoplasts co-transfected with PP2CA-PYL13, HAI2-PYL13, or HAI3-PYL13, which is consistent with PYL13 inhibition of these PP2Cs in an ABA-independent manner in vivo (FIG. 4A). To exclude interference by endogenous PP2Cs in wild type protoplasts and to assess the ABA-independent selective inhibition of PP2Cs by PYL13, PYL13 was co-expressed with PP2CA, HAI1, HAI2, and HAI3 in abi1/hab1/abi2 triple mutant protoplasts, as shown in FIG. 4C. After transfection, protoplasts were incubated for 4.5 h under light in the absence of ABA. Error bars indicate s.e.m. (n=3).
Expression of RD29B-LUC in the absence of ABA was increased in the transfections of PYL9-K63Q/L89F or PYL11-K39Q/L66F together with SnRK2.6 and ABF2 to a considerable level. The ABA-independent RD29B-LUC expression is about 70% of that in the presence of 5 μM ABA in the transfection of PYL11-K39Q/L66F, while about 30˜60% in the transfection of PYL9-K63Q/L89F (FIG. 4). […] RD29B-LUC was used as the ABA-responsive reporter. ZmUBQ-GUS was used as the internal control. After transfection, protoplasts were incubated for 4.5 h under light in the absence of ABA (open bars) or in the presence of 5 μM ABA (closed bars). Error bars indicate s.e.m. (n=4).
as §1
Before transfection, protoplasts were changed into MMg solution (4 mM MES, pH 5.7, 0.4 M mannitol, and 15 mM MgCl2) to a final concentration of 2×10^5 cells per microliter. Protoplasts (100 μl) were gently and thoroughly mixed with the plasmid DNA mixture (less than 10 μl) and 110 μl of PEG solution (40% w/v PEG-4000, 0.2 M mannitol, and 100 mM CaCl2), incubated for 5 min, washed with 440 μl of W5 solution, and resuspended in 50 μl of WI solution (4 mM MES, pH 5.7, 0.5 M mannitol, and 20 mM KCl). After transfection, protoplasts were incubated in WI solution without ABA or with 5 μM ABA under light. The protoplasts were harvested after 4.5 h, frozen in liquid N2, and stored at −80° C.
The frozen protoplasts were resuspended in 50 μl of protoplast lysis buffer containing 2.5 mM Tris-phosphate, pH 7.8, 1 mM DTT, 2 mM DACTAA, 10% (v/v) glycerol, and 1% (v/v) Triton X-100. Protoplast lysates (20 μl) were mixed with 100 μl of LUC mix (PROMEGA), and LUC luminescence was measured with a plate reader (Wallac VICTOR2 plate reader).
Protoplast lysates (2 μl) were mixed with 10 μl of 4-methylumbelliferyl β-D-glucuronide (MUG) substrate mix (10 mM Tris-HCl, pH 8, 1 mM MUG [GOLD BIOTECHNOLOGY], and 2 mM MgCl2). After the mixture was kept for 30 min at 37° C., 100 μl of 0.2 M Na2CO3 was added, and GUS activity was measured using the plate reader with the excitation filter at 355 nm and the emission filter at 460 nm.
All the plasmids used in this assay were purified with the QIAGEN Plasmid Maxi Kit or the QIAGEN Plasmid Midi Kit. The quality of plasmid DNA is important for high transfection efficiency. RD29B::LUC (7 μg of plasmid per transfection) was used as the ABA-responsive reporter. ZmUBQ::GUS (2 μg of plasmid per transfection) was used as the internal control. […]

B1: PYR1: Arabidopsis thaliana ABA receptor protein PYR1, AT4G17870 (protein, listed as Arabidopsis thaliana)
chain: MPSELTPEERSELKNSIAEFHTYQLDPGSCSSLHAQRIHAPPELVWSIVRRFDKPQTYKHFIKSCSVEQNFEMRVGCTRDVIVISGLPANTSTERLDILDDERRVTGFSIIGGEHRLTNYKSVTTVHRFEKENRIWTVVLESYVVDMPEGNSEDDTRMFADTVVKLNLQKLATVAEAMARNSGDGSGSQVT
As to B1, in the test on RD29B-LUC expression [1], the “ABA-dependent induction of RD29B-LUC expression” value (“ABA-dependent induction” for short) is reported as “restored RD29B-LUC expression”.

B2: PYL11-K39Q/L66F (protein)
chain: METSQKYHTCGSTLVQTIDAPLSLVWSILRRFDNPQAYQQFVKTCNLSSGDGGEGSVREVTVVSGFPAEFSRERLDELDDESHVMMISIIGGDHRLVNYRSKTMAFVAADTEEKTVVVESYVVDVPEGNSEEETTSFADTIVGFNLKSLAKLSERVAHLKL
Regarding B2, the “ABA-independent RD29B-LUC expression, as share of that in the presence of 5 μM ABA” value with RD29B-LUC expression [2] is reported as “about 70%”. The “ABA-dependent induction” value in the test with RD29B-LUC expression [1] is given as “cannot antagonize”.

B3: PYL9-K63Q/L89F (protein)
chain: MMDGVEGGTAMYGGLETVQYVRTHHQHLCRENQCTSALVKHIKAPLHLVWSLVRRFDQPQKYQPFVSRCTVIGDPEIGSLREVNVKSGFPATTSTERLELLDDEEHILGIKIIGGDHRLKNYSSILTVHPEIIEGRAGTMVIESFVVDVPQGNTKDETCYFVEALIRCNLKSLADVSERLASQDITQ
Take B3: the “ABA-independent RD29B-LUC expression, as share of that in the presence of 5 μM ABA” value with RD29B-LUC expression [2] is 30˜60%. For the same molecule, in the test with RD29B-LUC expression [1], the “ABA-dependent induction” value was “cannot antagonize”.

B4: Q38K/F71L (protein)
chain: MESSKQKRCRSSVVETIEAPLPLVWSILRSFDKPQAYKRFVKSCTMRSGGGGGKGGEGKGSVRDVTLVSGLPADFSTERLEELDDESHVMVVSIIGGNHRLVNYKSKTKVVASPEDMAKKTVVVESYVVDVPEGTSEEDTIFFVDNIIRYNLTSLAKLTKKMMK
As to B4, in the test on RD29B-LUC expression [1], the “ABA-dependent induction” value is on record as “could partially confer”. Besides, in the test on RD29B-LUC expression [1] (with ABI1, HAB1, HAB2, HAI1, and AHG1, SnRK2.6 and ABF2), the RD29B-LUC expression result is on record as “conferred an ABA-dependent induction”.

B5: Q38K/F71L/T135N (protein)
chain: MESSKQKRCRSSVVETIEAPLPLVWSILRSFDKPQAYKRFVKSCTMRSGGGGGKGGEGKGSVRDVTLVSGLPADFSTERLEELDDESHVMVVSIIGGNHRLVNYKSKTKVVASPEDMAKKTVVVESYVVDVPEGNSEEDTIFFVDNIIRYNLTSLAKLTKKMMK
As to B5, the “ABA-dependent induction” value in the test on RD29B-LUC expression [1] is “could partially confer”.

B6: Q38K/F71L/N98D (protein)
chain: MESSKQKRCRSSVVETIEAPLPLVWSILRSFDKPQAYKRFVKSCTMRSGGGGGKGGEGKGSVRDVTLVSGLPADFSTERLEELDDESHVMVVSIIGGDHRLVNYKSKTKVVASPEDMAKKTVVVESYVVDVPEGTSEEDTIFFVDNIIRYNLTSLAKLTKKMMK
For B6, in the test with RD29B-LUC expression [1], the “ABA-dependent induction” value was “could partially confer”.

B7: Q38K/F71L/N98D/T135N (protein)
chain: MESSKQKRCRSSVVETIEAPLPLVWSILRSFDKPQAYKRFVKSCTMRSGGGGGKGGEGKGSVRDVTLVSGLPADFSTERLEELDDESHVMVVSIIGGDHRLVNYKSKTKVVASPEDMAKKTVVVESYVVDVPEGNSEEDTIFFVDNIIRYNLTSLAKLTKKMMK
For the molecule B7, the “expression of RD29B-LUC in the absence of ABA” value with RD29B-LUC expression [2] (abi1/hab1/abi2 protoplasts, with PP2CA, HAI2, or HAI3, SnRK2.6 and ABF2) is given as “abolished”. For the same molecule, the “ABA-dependent induction” value in the test on RD29B-LUC expression [1] is “could partially confer”.
